This series deals with ParA resolvase. Put plainly: cell_activity. Conditions: complete recombination of pHCNparA and pSIPHCNparA into minicircle and miniplasmid 30 min after arabinose induction in E. coli; about 50% when resolvase was ….

With “ParA resolution sites res1/res2 (in plasmids pHCNparA, pSIPHCNparA, pSIPresHCN)”, the activity turned out to be 100%.
